# Literature values as cited in PMC3201939.
# Biological target: Cys22 (UniProt position 23, FIKPTCPYCRR)
substance,measurement,value
"Glutaredoxin 1 (Grx1, thioltransferase) (Homo sapiens)",pKa,3.5
